Article PMC12164976 (Science Advances, 2025)
Read-outs that look alike come from different tables or passages of the source. No end group written: not given here.

T1: chloroplast signal recognition particle 43-kDa protein (cpSRP43), wild type, full length (A. thaliana, UniProt O22265 57-373)
T1 sequence: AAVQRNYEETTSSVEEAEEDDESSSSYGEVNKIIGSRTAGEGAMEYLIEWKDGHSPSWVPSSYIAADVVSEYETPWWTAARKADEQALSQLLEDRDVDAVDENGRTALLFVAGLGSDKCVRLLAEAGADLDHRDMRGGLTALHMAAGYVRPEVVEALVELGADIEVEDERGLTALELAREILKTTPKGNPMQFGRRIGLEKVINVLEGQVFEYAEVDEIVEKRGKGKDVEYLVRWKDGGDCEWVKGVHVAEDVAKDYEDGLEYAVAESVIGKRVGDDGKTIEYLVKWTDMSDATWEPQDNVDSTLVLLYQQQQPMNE


Key:
Test in all cases: fluorescence polarisation
[1] = biological target: T1, chloroplast signal recognition particle …
[2] = biological target: T1, chloroplast signal recognition particle …; remark: listed apart in the source
[3] = biological target: T1, chloroplast signal recognition particle …; remark: listed apart in the source

Kd [1]	Kd [2]	Kd [3]	Binder
710 nM	28 nM	12 nM	GSFDPLGLADD (also: HiLyte Fluor 488 label, position not given here) [HiLyte Fluor 488-labeled L11 peptide]
5000 nM	230 nM	36 nM	QKQKAPPGTARRKRKAC (also: fluorescein label, position not given here) [fluorescein-labeled 54C peptide]
